Target: T1, native mGluR5 in detergent extracts of rat hippocampus (rat, UniProt P31424 21-1203, limits assumed)
T1 construct: Native protein in tissue lysate
Assay: in vitro binding assay with detergent extracts of hippocampus
Protocol: 40 ml of beads were then incubated with lysate from one hippocampus for one hour at 4° C., washed three times with PBS, and bound mGluR5 was eluted by boiling in 3× loading buffer.

T1 sequence (P31424 21-1203 limits assumed): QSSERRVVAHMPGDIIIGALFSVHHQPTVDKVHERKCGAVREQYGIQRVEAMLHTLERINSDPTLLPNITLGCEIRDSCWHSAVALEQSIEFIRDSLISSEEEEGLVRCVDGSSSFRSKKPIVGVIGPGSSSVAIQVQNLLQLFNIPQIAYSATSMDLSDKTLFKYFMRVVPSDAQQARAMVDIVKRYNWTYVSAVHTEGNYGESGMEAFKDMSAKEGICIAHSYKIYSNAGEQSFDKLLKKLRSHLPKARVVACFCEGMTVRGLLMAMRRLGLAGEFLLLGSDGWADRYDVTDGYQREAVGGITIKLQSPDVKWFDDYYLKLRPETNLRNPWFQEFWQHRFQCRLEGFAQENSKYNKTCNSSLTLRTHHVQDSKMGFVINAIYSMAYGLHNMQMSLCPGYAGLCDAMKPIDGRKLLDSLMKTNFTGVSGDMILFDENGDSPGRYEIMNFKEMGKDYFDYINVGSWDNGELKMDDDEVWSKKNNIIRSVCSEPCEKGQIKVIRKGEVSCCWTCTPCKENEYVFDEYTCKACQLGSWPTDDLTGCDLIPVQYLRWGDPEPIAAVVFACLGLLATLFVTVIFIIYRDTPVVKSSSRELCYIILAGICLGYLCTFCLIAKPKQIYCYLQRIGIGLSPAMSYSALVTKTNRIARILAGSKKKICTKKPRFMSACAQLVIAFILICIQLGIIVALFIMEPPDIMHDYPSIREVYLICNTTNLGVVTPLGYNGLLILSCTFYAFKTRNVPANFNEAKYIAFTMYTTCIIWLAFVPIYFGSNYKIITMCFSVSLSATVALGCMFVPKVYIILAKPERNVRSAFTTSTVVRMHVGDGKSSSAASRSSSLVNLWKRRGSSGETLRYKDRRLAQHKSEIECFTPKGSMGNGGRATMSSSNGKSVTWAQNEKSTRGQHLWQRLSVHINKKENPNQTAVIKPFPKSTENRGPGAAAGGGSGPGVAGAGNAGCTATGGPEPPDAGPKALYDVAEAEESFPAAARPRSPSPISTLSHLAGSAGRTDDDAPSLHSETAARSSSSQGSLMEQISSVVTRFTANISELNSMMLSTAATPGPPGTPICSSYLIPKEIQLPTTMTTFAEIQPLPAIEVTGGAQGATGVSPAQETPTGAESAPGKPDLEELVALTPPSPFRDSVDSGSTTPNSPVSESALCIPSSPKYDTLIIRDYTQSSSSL

B1: GST-Homer fusion protein (rat Homer) used with hippocampal extracts (other)
chain: GEQPIFSTRAHVFQIDPNTKKNWVPTSKHAVTVSYFYDSTRNVYRIISLDGSKAIINSTITPNMTFTKTSQKFGQWADSRANTVYGLGFSSEHHLSKFAEKFQEFKEAARLAKEKSQEKMELTSTPSQESAGGDLQSPLTPESINGTDDERTPDVTQNSEPRAEPAQNALPFSHRYTFNSAIMIK
notes: also called Homer GST fusion protein; Homer GST-fusion protein; not shown: glutathione S-transferase (GST) fusion partner, bacterially expressed
B1: binds.

Reference: US20060147914A1 (Johns Hopkins, published 2006)
